± gives the uncertainty stated by the source.
B1: library; numbered along this chain (parent)
chain: MEVVDPQQLGMFTEGELMSVGMDTFIHRIDSTEVIYQPRRKRAKLIGKYLMGDLLGEGSYGKVKEVLDSETLCRRAVKILKKKKLRRIPNGEANVKKEIQLLRRLRHKNVIQLVDVLYNEEKQKMYMVMEYCVCGMQEMLDSVPEKRFPVCQAHGYFCQLIDGLEYLHSQGIVHKDIKPGNLLLTTGGTLKISDLGVAEALHPFAADDTCRTSQGSPAFQPPEIANGLDTFSGFKVDIWSAGVTLYNITTGLYPFEGDNIYKLFENIGKGSYAIPGDCGPPLSDLLKGMLEYEPAKRFSIRQIRQHSWFRKKHPPAEAPVPIPPSPDTKDRWRSMTVVPYLEDLHGADEDEDLFDIEDDIIYTQDFTVPGQVPEEEASHNGQRRGLPKAVCMNGTEAAQLSTKSRAEGRAPNPARKACSASSKIRRLSACKQQ

Variants of: B1
Assay: STK11 functional score (HeLa growth suppression), rescaled enrichment; synonymous median = 1, nonsense median = 0 (normalised score)
Conditions: with HeLa; variant type: missense
In short: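 The functional score takes the post/pre-selection log ratio, corrects it to wild type, rescales it to synonymous and nonsense medians, and merges it over codons and replicate transfections, with error from bootstrapping. Counts came from tiled gDNA amplicons sequenced on NextSeq (~2 million reads per tile). The libraries were POPCode codon-randomised, codon-optimised STK11 integrated by Bxb1 at an AAVS1 landing pad in HeLa, three regions with three transfections each.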

Variant	STK11 functional score
P369K	1.42 ± 0.26
R425I	0.977 ± 0.41
D365M	1.59 ± 0.14
R297V	-0.053 ± 0.093
I248V	0.854 ± 0.17
G233A	1.3 ± 0.6
V243Q	1.19 ± 0.52
V243R	0.16 ± 0.099
I177V	1.06 ± 0.19
G370W	1.41 ± 0.31
L117H	1.05 ± 0.37
L290N	-0.076 ± 0.064
L290M	0.891 ± 0.12
E199R	1.67 ± 0.31
G381K	1.59 ± 0.29
G381A	1.09 ± 0.4
G394R	1.17 ± 0.3
G394M	1.62 ± 0.15
L164G	-0.142 ± 0.098
K269S	1.41 ± 0.19
S419H	1.63 ± 0.18
M392P	1.63 ± 0.27
E120M	1.11 ± 0.11
I267G	0.602 ± 0.3

Variant	STK11 functional score
A406E	1.45 ± 0.3
S378F	1.41 ± 0.43
L80H	0.878 ± 0.092
I224T	0.252 ± 0.4
F366R	1.52 ± 0.17
K82G	1.23 ± 0.17
G91Q	1.1 ± 0.13
G91C	0.164 ± 0.23
L54P	1.21 ± 0.18
L54Y	1.47 ± 0.19
K48P	1.41 ± 0.45
E376T	1.55 ± 0.26
P339C	1.59 ± 0.11
V372W	1.09 ± 0.29
V372P	1.48 ± 0.24
Y261F	0.449 ± 0.14
E342C	1.21 ± 0.35
E342V	1.46 ± 0.17
E16L	1.15 ± 0.29
E92R	1.64 ± 0.4
E92T	1.62 ± 0.18
A347H	0.00438 ± 0.16
C430F	1.48 ± 0.14
K83N	1.3 ± 0.39

Variant	STK11 functional score
V320M	1.47 ± 0.53
E65M	0.457 ± 0.078
E65S	1.55 ± 0.19
I356A	1.5 ± 0.25
L400T	1.11 ± 0.44
L400K	0.775 ± 0.24
R39S	1.17 ± 0.36
D162I	1.05 ± 0.58
I238V	1.21 ± 0.16
P38A	1.06 ± 0.29
T328V	1.36 ± 0.14
S422Q	1.58 ± 0.13
N412W	0.786 ± 0.18
P89Y	0.644 ± 0.31
P89E	1.68 ± 0.19
D343Y	1.29 ± 0.41
R409W	1.42 ± 0.11
K423N	1.52 ± 0.34
Q382T	1.29 ± 0.33
Q382L	1.34 ± 0.28
H107R	0.205 ± 0.11
G135N	1.7 ± 0.41
G135F	1.09 ± 0.08
F148T	-0.101 ± 0.1

Variant	STK11 functional score
F148Y	0.892 ± 0.11
F148C	0.493 ± 0.087
F148K	-0.033 ± 0.18
F231P	0.959 ± 0.34
F231I	1.62 ± 0.17
F231E	1.24 ± 0.3
P149M	1.02 ± 0.2
N181L	-0.122 ± 0.069
N181G	0.0242 ± 0.078
E256D	1.63 ± 0.4
C134A	1.1 ± 0.081
A206E	0.305 ± 0.46
A206P	1.24 ± 0.15
W239L	0.325 ± 0.1
S283M	1.28 ± 0.22
A397I	1.51 ± 0.27
R415I	0.924 ± 0.23
E396V	1.55 ± 0.28
E396G	1.55 ± 0.14
I99W	0.631 ± 0.11
C132I	1.32 ± 0.25
H345M	1.54 ± 0.17
H345F	1.41 ± 0.33
D284C	0.513 ± 0.086

Variant	STK11 functional score
S325M	0.0951 ± 0.43
E2Q	1.21 ± 0.54
L105S	1.29 ± 0.15
V110M	0.358 ± 0.072
V110H	0.958 ± 0.11
F255G	0.519 ± 0.14
H168W	0.545 ± 0.6
T336A	1.52 ± 0.23
G171I	1.46 ± 0.18
F298E	-0.101 ± 0.11
L285T	-0.111 ± 0.11
L285Y	-0.477 ± 0.072
S334V	1.31 ± 0.2
H202M	1.19 ± 0.31
C418E	1.58 ± 0.14
L184T	1.49 ± 0.24
D348R	1.2 ± 0.26
G180H	1.65 ± 0.29
G180I	1.41 ± 0.39
G180A	1.34 ± 0.32
N266S	0.965 ± 0.15
T367I	1.38 ± 0.23
P6M	0.679 ± 0.19
N119K	1.18 ± 0.15

Variant	STK11 functional score
E70L	1.03 ± 0.32
K388A	1.17 ± 0.65
Q112L	1.08 ± 0.2
Q399C	1.23 ± 0.5
Q399M	0.653 ± 0.13
T402P	1.54 ± 0.46
K146H	1.49 ± 0.46
Q170R	1.16 ± 0.33
Q170C	1.51 ± 0.44
K78P	-0.226 ± 0.12
T185N	0.509 ± 0.18
L102W	1.2 ± 0.079
S271T	1.17 ± 0.2
S271A	1.11 ± 0.31
P326G	1.52 ± 0.15
M335Y	1.32 ± 0.35
M335S	1.53 ± 0.18
R106T	1.69 ± 0.18
T230K	1.29 ± 0.1
I300F	1.21 ± 0.35
K191D	-0.393 ± 0.099
I192Y	1.11 ± 0.19
C73S	1.38 ± 0.43
S216V	0.614 ± 0.25

Variant	STK11 functional score
S216P	0.894 ± 0.18
P315Y	1.29 ± 0.08
F354A	1.54 ± 0.21
F354M	1.51 ± 0.23
V143I	1.09 ± 0.16
L427S	1.55 ± 0.11
F264T	0.96 ± 0.56
D229F	0.981 ± 0.57
Q7L	1.25 ± 0.13
A198N	0.745 ± 0.5
S193M	0.111 ± 0.094
S193G	0.596 ± 0.24
A377H	0.0602 ± 0.3
G58F	0.0123 ± 0.09
G58R	-0.318 ± 0.1
P275K	1.45 ± 0.32
E33L	1 ± 0.13
M139Y	1.53 ± 0.46
N380A	1.51 ± 0.23
K108H	1.26 ± 0.3
K311D	1.32 ± 0.29
K311P	1.07 ± 0.4
A153G	1.13 ± 0.13

Source: the supplement of paper PMC12338614
